From patent US20150344570A1 (published 2015)

T1: FcγRIIa H (human, UniProt P12318 34-217)
T1 construct: extracellular domain; also called FcgRIIa H; 2aH; not shown: His tag attached to the C terminus
T1 sequence (looked up): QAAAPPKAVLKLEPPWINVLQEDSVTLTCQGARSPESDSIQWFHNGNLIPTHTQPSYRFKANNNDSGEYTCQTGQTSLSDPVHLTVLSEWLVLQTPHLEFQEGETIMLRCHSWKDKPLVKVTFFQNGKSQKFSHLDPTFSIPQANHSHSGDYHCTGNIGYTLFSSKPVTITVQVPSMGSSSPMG

T2: FcγRIIb (human, UniProt P31994 43-217)
T2 construct: extracellular domain; also called FcgRIIb; 2b; not shown: His tag attached to the C terminus
T2 sequence (looked up): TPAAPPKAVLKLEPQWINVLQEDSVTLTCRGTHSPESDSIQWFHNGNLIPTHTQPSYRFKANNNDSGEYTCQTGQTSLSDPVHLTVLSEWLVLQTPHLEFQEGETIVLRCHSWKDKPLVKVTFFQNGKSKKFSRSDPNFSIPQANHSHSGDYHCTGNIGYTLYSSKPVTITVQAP

T3: FcγRIIa H (human, UniProt P12318 34-217)
T3 construct: extracellular domain; also called FcgRIIa H; FcγRIIa type H
T3 sequence (looked up): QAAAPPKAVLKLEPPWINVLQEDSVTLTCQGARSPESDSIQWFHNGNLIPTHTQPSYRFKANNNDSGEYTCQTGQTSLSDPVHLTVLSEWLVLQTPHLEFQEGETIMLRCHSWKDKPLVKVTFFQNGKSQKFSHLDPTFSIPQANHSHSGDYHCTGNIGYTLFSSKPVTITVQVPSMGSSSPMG

T4: FcγRIIb (human, UniProt P31994 43-217)
T4 construct: extracellular domain; also called FcgRIIb; 2b
T4 sequence (looked up): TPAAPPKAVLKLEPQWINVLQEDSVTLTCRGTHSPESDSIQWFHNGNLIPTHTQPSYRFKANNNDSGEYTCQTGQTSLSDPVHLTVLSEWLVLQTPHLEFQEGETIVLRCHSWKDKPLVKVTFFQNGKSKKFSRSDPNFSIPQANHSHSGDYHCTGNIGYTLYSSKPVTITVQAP


Experiments:
[1] = molecular target: T1, FcγRIIa H; assay: SPR; He/Con for FcγRIIa H divided by He/Con for FcγRIIb
[2] = molecular target: T1, FcγRIIa H; assay: SPR (Biacore), antibody captured on antigen peptide chip, FcγR as analyte; relative binding activity
Procedure: (§1) The heterodimerized antibodies He Abs in which one of the H chains was introduced with an alteration were assayed for their binding activities to each activating FcγR and inhibitory FcγR according to the method described in Example 4. […] The activating FcγRs in FIGS. 26, 27, 28, and 29 are FcγRIa, FcγRIIa (R), FcγRIIa (H), and FcγRIIIa, respectively.
(§2) Analysis of interaction between objective antibody and the FcγR was carried out using Biacore T100 (GE Healthcare). HBS-EP+ (GE Healthcare) was used as the running buffer, and the measurement temperature was set to 25° C. Chips produced by immobilizing the antigen peptide by the amine coupling method to a Series S Sencor Chip CM5 (GE Healthcare), or alternatively, chips produced by allowing preliminarily biotinylated antigen peptides to interact with and immobilize onto a Series S Sensor Chip SA (certified) (GE Healthcare) were used. Antibodies of interest were captured onto an antigen peptide-immobilized chip, and allowed to interact to each FcγR diluted with running buffer. To regenerate and repeatedly use the chip, the antibodies captured on the chip were washed off by reacting 10 mM glycine-HCl, pH 1.5.

[3] = molecular target: T2, FcγRIIb; assay: as above
Procedure: as §1, §2

[4] = molecular target: T3, FcγRIIa H; assay: SPR (Biacore); He/Con_2aH divided by He/Con_2b (FcγRIIa H over FcγRIIb)
[5] = molecular target: T3, FcγRIIa H; assay: SPR (Biacore), antibody captured, FcγR analyte; binding relative to GpH7-A5/GpH7-B3/GpL16-k0 = 100
[6] = molecular target: T4, FcγRIIb; assay: as above

Binder	He_2aH/2b (IIaH/IIb) [1] [ratio]	He/Con_2aH [2]	He/Con_2b [3]	He_2aH/2b (IIaH/IIb) [4] [ratio]	He/Con_2aH [5]	He/Con_2b [6]
GpH7-A5/GpH7-B3 variant G237_02A/GpL16-k0 (antibody, human IgG1, kappa, Heterodimerized antibody, alteration in one H chain only; also called He Ab G237A) heavy 1: not shown heavy 2: not shown light: DIVMTQSPLSLPVTPGEPASISCQASESLVHSNRNTYLHWYLQKPGQSPQLLIYKVSNRFSGVPDRFSGSGSGTDFTLKISRVEAEDVGVYYCSQNTHVPPTFGQGTKVEIERTVAAPSVFIFPPSDEQLKSGTASVVCLLNNFYPREAKVQWKVDNALQSGNSQESVTEQDSKDSTYSLSSTLTLSKADYEKHKVYACEVTHQGLSSPVTKSFNRGEC	–	–	–	0.27	34 % of control	124 % of control
GpH7-A5/GpH7-B3 variant G237_06M/GpL16-k0 (antibody, human IgG1, kappa, Heterodimerized antibody, alteration in one H chain only; also called He Ab G237M) heavy 1: not shown heavy 2: not shown light: DIVMTQSPLSLPVTPGEPASISCQASESLVHSNRNTYLHWYLQKPGQSPQLLIYKVSNRFSGVPDRFSGSGSGTDFTLKISRVEAEDVGVYYCSQNTHVPPTFGQGTKVEIERTVAAPSVFIFPPSDEQLKSGTASVVCLLNNFYPREAKVQWKVDNALQSGNSQESVTEQDSKDSTYSLSSTLTLSKADYEKHKVYACEVTHQGLSSPVTKSFNRGEC	–	–	–	0.14	17.8 % of control	130 % of control
GpH7-A5/GpH7-B3 variant G236_09D/GpL16-k0 (antibody, human IgG1, kappa, Heterodimerized antibody, alteration in one H chain only; also called He Ab G236D) heavy 1: not shown heavy 2: not shown light: DIVMTQSPLSLPVTPGEPASISCQASESLVHSNRNTYLHWYLQKPGQSPQLLIYKVSNRFSGVPDRFSGSGSGTDFTLKISRVEAEDVGVYYCSQNTHVPPTFGQGTKVEIERTVAAPSVFIFPPSDEQLKSGTASVVCLLNNFYPREAKVQWKVDNALQSGNSQESVTEQDSKDSTYSLSSTLTLSKADYEKHKVYACEVTHQGLSSPVTKSFNRGEC	–	–	–	0.54	89.8 % of control	167 % of control

Results, then the binder that gave them:

He_2aH/2b (IIaH/IIb) [1] [ratio]	He/Con_2aH [2]	He/Con_2b [3]	He_2aH/2b (IIaH/IIb) [4] [ratio]	He/Con_2aH [5]	He/Con_2b [6]	Binder
1.29	84.8 % of GpH7-A5/GpH7-B3/GpL16-k0 (=100)	65.7 % of GpH7-A5/GpH7-B3/GpL16-k0 (=100)	–	–	–	GpH7-A5/GpH7-B3 variant H268_06M/GpL16-k0 (antibody, human IgG1, kappa, Heterodimerized anti-glypican-3 IgG1; mutation in one H chain only; also called He Ab) heavy 1: not shown heavy 2: not shown light: DIVMTQSPLSLPVTPGEPASISCQASESLVHSNRNTYLHWYLQKPGQSPQLLIYKVSNRFSGVPDRFSGSGSGTDFTLKISRVEAEDVGVYYCSQNTHVPPTFGQGTKVEIERTVAAPSVFIFPPSDEQLKSGTASVVCLLNNFYPREAKVQWKVDNALQSGNSQESVTEQDSKDSTYSLSSTLTLSKADYEKHKVYACEVTHQGLSSPVTKSFNRGEC
–	–	–	0.76	7.5 % of control	–	GpH7-A5/GpH7-B3 variant G237_12R/GpL16-k0 (antibody, human IgG1, kappa, Heterodimerized antibody, alteration in one H chain only; also called He Ab G237R) heavy 1: not shown heavy 2: not shown light: DIVMTQSPLSLPVTPGEPASISCQASESLVHSNRNTYLHWYLQKPGQSPQLLIYKVSNRFSGVPDRFSGSGSGTDFTLKISRVEAEDVGVYYCSQNTHVPPTFGQGTKVEIERTVAAPSVFIFPPSDEQLKSGTASVVCLLNNFYPREAKVQWKVDNALQSGNSQESVTEQDSKDSTYSLSSTLTLSKADYEKHKVYACEVTHQGLSSPVTKSFNRGEC
1.94	48.1 % of GpH7-A5/GpH7-B3/GpL16-k0 (=100)	24.7 % of GpH7-A5/GpH7-B3/GpL16-k0 (=100)	–	–	–	GpH7-A5/GpH7-B3 variant S239_11K/GpL16-k0 (antibody, human IgG1, kappa, Heterodimerized anti-glypican-3 IgG1; mutation in one H chain only; also called He Ab) heavy 1: not shown heavy 2: not shown light: DIVMTQSPLSLPVTPGEPASISCQASESLVHSNRNTYLHWYLQKPGQSPQLLIYKVSNRFSGVPDRFSGSGSGTDFTLKISRVEAEDVGVYYCSQNTHVPPTFGQGTKVEIERTVAAPSVFIFPPSDEQLKSGTASVVCLLNNFYPREAKVQWKVDNALQSGNSQESVTEQDSKDSTYSLSSTLTLSKADYEKHKVYACEVTHQGLSSPVTKSFNRGEC
1.25	85 % of GpH7-A5/GpH7-B3/GpL16-k0 (=100)	67.8 % of GpH7-A5/GpH7-B3/GpL16-k0 (=100)	–	–	–	GpH7-A5/GpH7-B3 variant H268_08L/GpL16-k0 (antibody, human IgG1, kappa, Heterodimerized anti-glypican-3 IgG1; mutation in one H chain only; also called He Ab) heavy 1: not shown heavy 2: not shown light: DIVMTQSPLSLPVTPGEPASISCQASESLVHSNRNTYLHWYLQKPGQSPQLLIYKVSNRFSGVPDRFSGSGSGTDFTLKISRVEAEDVGVYYCSQNTHVPPTFGQGTKVEIERTVAAPSVFIFPPSDEQLKSGTASVVCLLNNFYPREAKVQWKVDNALQSGNSQESVTEQDSKDSTYSLSSTLTLSKADYEKHKVYACEVTHQGLSSPVTKSFNRGEC
